Legend:
[1] = biological target: recombinant human OX40 (Acro Biosystems, cat. no. OXO-H5224) (human) (UniProt P43489); assay: BLI cross-block; competitor (immobilized 1st Ab): IgG1-CD134-SF2
[2] = biological target: recombinant human OX40 (Acro Biosystems, cat. no. OXO-H5224) (human) (UniProt P43489); assay: BLI cross-block; competitor (immobilized 1st Ab): IgG1-CD134-003
[3] = biological target: cynomolgus monkey OX40, cell surface-expressed (cynomolgus monkey); assay: flow cytometry, HEK293F cells with cynomolgus monkey OX40
Chain of cynomolgus monkey OX40, cell surface-expressed (cynomolgus monkey) (P43489 other isoform, or with tags, fused parts or gaps limits assumed): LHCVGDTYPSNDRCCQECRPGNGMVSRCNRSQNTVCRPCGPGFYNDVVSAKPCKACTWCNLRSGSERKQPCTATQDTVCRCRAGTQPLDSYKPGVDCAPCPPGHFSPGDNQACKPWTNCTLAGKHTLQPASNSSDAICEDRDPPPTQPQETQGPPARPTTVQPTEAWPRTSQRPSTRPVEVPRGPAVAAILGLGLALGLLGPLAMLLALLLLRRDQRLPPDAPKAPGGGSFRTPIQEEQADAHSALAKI

[4] = biological target: recombinant human OX40 (Acro Biosystems, cat. no. OXO-H5224) (human) (UniProt P43489); assay: BLI cross-block; competitor (immobilized 1st Ab): IgG1-CD134-RG7888
[5] = biological target: recombinant human OX40 (Acro Biosystems, cat. no. OXO-H5224) (human) (UniProt P43489); assay: BLI cross-block; competitor (immobilized 1st Ab): IgG1-CD134-Hu106
[6] = biological target: recombinant human OX40 (Acro Biosystems, cat. no. OXO-H5224) (human) (UniProt P43489); assay: BLI cross-block; competitor (immobilized 1st Ab): IgG1-CD134-MEDI0562
[7] = biological target: human OX40 with mouse CRD1 (human with mouse CRD1) (UniProt P43489); assay: flow cytometry, ExpiCHO-S cells with human OX40 carrying mouse CRD1
Chain of human OX40 with mouse CRD1 (human with mouse CRD1) (P43489 other isoform, or with tags, fused parts or gaps limits assumed): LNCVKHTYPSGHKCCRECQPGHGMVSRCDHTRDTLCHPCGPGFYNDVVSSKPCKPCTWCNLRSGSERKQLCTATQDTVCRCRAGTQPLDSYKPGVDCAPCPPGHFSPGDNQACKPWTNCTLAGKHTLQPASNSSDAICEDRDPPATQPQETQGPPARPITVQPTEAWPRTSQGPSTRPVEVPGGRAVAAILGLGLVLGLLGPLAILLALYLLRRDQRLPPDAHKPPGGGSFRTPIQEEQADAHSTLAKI

[8] = biological target: recombinant human OX40 (Acro Biosystems, cat. no. OXO-H5224) (human) (UniProt P43489); assay: BLI cross-block; competitor (immobilized 1st Ab): IgG1-CD134-003-HC6LC2-RR
[9] = biological target: recombinant human OX40 (Acro Biosystems, cat. no. OXO-H5224) (human) (UniProt P43489); assay: BLI cross-block; competitor (immobilized 1st Ab): IgG1-CD134-INCAGN1949
[10] = biological target: human OX40 with mouse CRD3 (human with mouse CRD3) (UniProt P43489); assay: flow cytometry, ExpiCHO-S cells with human OX40 carrying mouse CRD3
Chain of human OX40 with mouse CRD3 (human with mouse CRD3) (P43489 other isoform, or with tags, fused parts or gaps limits assumed): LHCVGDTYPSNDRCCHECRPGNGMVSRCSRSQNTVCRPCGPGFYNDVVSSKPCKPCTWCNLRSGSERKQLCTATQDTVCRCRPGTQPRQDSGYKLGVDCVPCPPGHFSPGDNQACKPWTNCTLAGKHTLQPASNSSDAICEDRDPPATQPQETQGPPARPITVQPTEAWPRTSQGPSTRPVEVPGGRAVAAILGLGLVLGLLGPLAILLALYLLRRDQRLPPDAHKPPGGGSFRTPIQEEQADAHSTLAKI

[11] = biological target: recombinant human OX40 (Acro Biosystems, cat. no. OXO-H5224) (human) (UniProt P43489); assay: BLI, Ab on AHC sensor, OX40 analyte
[12] = biological target: recombinant human OX40 (Acro Biosystems, cat. no. OXO-H5224) (human) (UniProt P43489); assay: BLI cross-block; competitor (immobilized 1st Ab): IgG1-CD134-012
[13] = biological target: recombinant human OX40 (Acro Biosystems, cat. no. OXO-H5224) (human) (UniProt P43489); assay: BLI cross-block; competitor (immobilized 1st Ab): IgG1-CD134-007
[14] = biological target: recombinant human OX40 (Acro Biosystems, cat. no. OXO-H5224) (human) (UniProt P43489); assay: BLI cross-block; competitor (immobilized 1st Ab): IgG1-CD134-GBR830
[15] = biological target: recombinant human OX40 (Acro Biosystems, cat. no. OXO-H5224) (human) (UniProt P43489); assay: BLI cross-block; competitor (immobilized 1st Ab): IgG1-CD134-ABBV368
[16] = biological target: recombinant cynomolgus monkey OX40 (Acro Biosystems, cat. no. OXO-C5220) (cynomolgus monkey); assay: BLI, Ab on AHC sensor, OX40 analyte; * binding observed, less reliable fit
Chain of recombinant cynomolgus monkey OX40 (Acro Biosystems, cat. no. OXO-C5220) (cynomolgus monkey) (P43489 other isoform, or with tags, fused parts or gaps limits assumed): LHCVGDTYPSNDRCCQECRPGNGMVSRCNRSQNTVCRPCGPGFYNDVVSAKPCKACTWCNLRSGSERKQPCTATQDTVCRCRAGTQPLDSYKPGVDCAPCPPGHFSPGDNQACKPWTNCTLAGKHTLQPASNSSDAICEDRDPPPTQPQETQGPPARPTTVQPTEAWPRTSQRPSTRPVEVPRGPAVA

[17] = biological target: human OX40 with mouse CRD4 (human with mouse CRD4) (UniProt P43489); assay: flow cytometry, ExpiCHO-S cells with human OX40 carrying mouse CRD4
Chain of human OX40 with mouse CRD4 (human with mouse CRD4) (P43489 other isoform, or with tags, fused parts or gaps limits assumed): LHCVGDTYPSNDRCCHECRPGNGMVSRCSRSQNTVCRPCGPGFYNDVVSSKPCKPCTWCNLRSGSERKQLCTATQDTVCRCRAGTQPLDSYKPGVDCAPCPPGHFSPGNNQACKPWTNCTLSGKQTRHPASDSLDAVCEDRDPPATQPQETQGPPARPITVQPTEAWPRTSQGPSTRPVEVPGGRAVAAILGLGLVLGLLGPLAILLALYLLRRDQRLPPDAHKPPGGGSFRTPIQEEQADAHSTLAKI

[18] = biological target: human OX40, cell surface-expressed (human) (UniProt P43489); assay: flow cytometry, ExpiCHO-S cells with human OX40
Chain of human OX40, cell surface-expressed (human) (P43489 29-277): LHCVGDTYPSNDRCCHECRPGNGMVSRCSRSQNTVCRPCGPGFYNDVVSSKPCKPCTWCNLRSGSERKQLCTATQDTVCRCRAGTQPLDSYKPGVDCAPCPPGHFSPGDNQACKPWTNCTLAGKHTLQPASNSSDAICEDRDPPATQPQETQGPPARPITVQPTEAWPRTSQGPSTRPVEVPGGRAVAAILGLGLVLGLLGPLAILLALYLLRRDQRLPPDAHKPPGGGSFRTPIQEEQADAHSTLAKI

[19] = biological target: recombinant human OX40 (Acro Biosystems, cat. no. OXO-H5224) (human) (UniProt P43489); assay: BLI cross-block; competitor (immobilized 1st Ab): IgG1-CD134-49B4-RRE
[20] = biological target: recombinant human OX40 (Acro Biosystems, cat. no. OXO-H5224) (human) (UniProt P43489); assay: BLI cross-block; competitor (immobilized 1st Ab): IgG1-CD134-IBI101
[21] = biological target: recombinant human OX40 (Acro Biosystems, cat. no. OXO-H5224) (human) (UniProt P43489); assay: BLI cross-block; competitor (immobilized 1st Ab): IgG1-CD134-11D4
[22] = biological target: human OX40, cell surface-expressed (human) (UniProt P43489); assay: flow cytometry, HEK293F cells with human OX40
[23] = biological target: recombinant human OX40 (Acro Biosystems, cat. no. OXO-H5224) (human) (UniProt P43489); assay: BLI cross-block; competitor (immobilized 1st Ab): IgG1-CD134-A4453
[24] = biological target: recombinant human OX40 (Acro Biosystems, cat. no. OXO-H5224) (human) (UniProt P43489); assay: BLI cross-block; competitor (immobilized 1st Ab): IgG1-CD134-h3C8
[25] = biological target: human OX40, cell surface-expressed (human) (UniProt P43489); assay: flow cytometry, activated CD4+ T cells, donor 1
[26] = biological target: human OX40, cell surface-expressed (human) (UniProt P43489); assay: flow cytometry, activated CD8+ T cells, donor 2
[27] = biological target: human OX40, cell surface-expressed (human) (UniProt P43489); assay: flow cytometry, activated CD8+ T cells, donor 3
[28] = biological target: human OX40, cell surface-expressed (human) (UniProt P43489); assay: flow cytometry, activated CD4+ T cells, mean of 3 donors
[29] = biological target: human OX40, cell surface-expressed (human) (UniProt P43489); assay: flow cytometry, activated CD4+ T cells, donor 2
[30] = biological target: human OX40, cell surface-expressed (human) (UniProt P43489); assay: flow cytometry, activated CD4+ T cells, donor 3
[31] = biological target: human OX40, cell surface-expressed (human) (UniProt P43489); assay: flow cytometry, activated CD8+ T cells, mean of 3 donors
[32] = biological target: human OX40, cell surface-expressed (human) (UniProt P43489); assay: flow cytometry, activated CD8+ T cells, donor 1
[33] = biological target: His-tagged human recombinant FcγRIa (human) (UniProt P12314); assay: SPR, His-tagged FcγRIa captured on an anti-His chip, antibody injected
Chain of His-tagged human recombinant FcγRIa (human) (P12314 16-288 limits assumed): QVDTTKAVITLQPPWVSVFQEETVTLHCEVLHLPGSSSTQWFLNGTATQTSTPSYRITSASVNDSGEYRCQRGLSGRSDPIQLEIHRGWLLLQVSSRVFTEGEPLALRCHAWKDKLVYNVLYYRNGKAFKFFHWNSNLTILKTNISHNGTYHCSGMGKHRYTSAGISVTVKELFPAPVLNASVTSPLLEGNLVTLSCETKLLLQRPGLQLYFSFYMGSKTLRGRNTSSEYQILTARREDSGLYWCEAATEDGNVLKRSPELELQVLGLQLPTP

[34] = biological target: human FcγRIa, cell surface-expressed (human) (UniProt P12314); assay: flow cytometry, ExpiCHO-S cells transfected with human FcγRIa
Chain of human FcγRIa, cell surface-expressed (human) (P12314 16-374): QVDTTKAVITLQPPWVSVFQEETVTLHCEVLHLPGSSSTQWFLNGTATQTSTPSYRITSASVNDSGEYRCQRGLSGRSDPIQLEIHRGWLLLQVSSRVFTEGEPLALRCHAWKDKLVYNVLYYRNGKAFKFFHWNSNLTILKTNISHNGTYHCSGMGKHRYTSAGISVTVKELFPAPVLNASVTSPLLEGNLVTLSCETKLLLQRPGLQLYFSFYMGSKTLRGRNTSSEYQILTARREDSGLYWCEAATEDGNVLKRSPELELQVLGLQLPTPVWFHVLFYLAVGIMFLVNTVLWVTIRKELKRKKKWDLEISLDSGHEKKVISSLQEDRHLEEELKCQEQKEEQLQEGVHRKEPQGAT

Chain of IgG1-CD134-IBI101 (antibody) (VH): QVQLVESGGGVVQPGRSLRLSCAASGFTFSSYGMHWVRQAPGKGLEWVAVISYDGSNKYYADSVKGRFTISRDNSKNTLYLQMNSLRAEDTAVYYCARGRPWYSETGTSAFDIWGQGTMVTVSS
Chain of IgG1-CD134-IBI101 (antibody) (VL): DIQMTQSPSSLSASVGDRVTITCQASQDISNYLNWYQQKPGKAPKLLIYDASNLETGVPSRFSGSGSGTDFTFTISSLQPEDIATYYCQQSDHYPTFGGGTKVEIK
Chain of recombinant human OX40 (Acro Biosystems, cat. no. OXO-H5224) (human) (P43489 29-216 limits assumed): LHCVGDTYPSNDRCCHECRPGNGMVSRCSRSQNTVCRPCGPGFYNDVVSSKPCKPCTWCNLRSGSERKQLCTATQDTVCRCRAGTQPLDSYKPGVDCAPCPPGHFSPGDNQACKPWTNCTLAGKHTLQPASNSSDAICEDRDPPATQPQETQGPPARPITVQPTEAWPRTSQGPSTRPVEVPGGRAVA

corrected association response [1]	corrected association response [2]	EC50 (read off the curve) [3]	corrected association response [4]	corrected association response [5]	corrected association response [6]	EC50 (read off the curve) [7]	corrected association response [8]	corrected association response [9]	Kd [11]	corrected association response [12]	corrected association response [13]	corrected association response [14]	corrected association response [15]	Kd [16]	corrected association response [19]	corrected association response [20]	corrected association response [21]	EC50 (read off the curve) [22]	corrected association response [23]	Substance	also measured
0.03 nm	1.06 nm	0.06 µg/mL	0.02 nm	0.05 nm	0.31 nm	0.06 µg/mL	1.39 nm	0 nm	9.3 nM	0.8 nm	0.05 nm	0.01 nm	-0.01 nm	240 nM	-0.01 nm	0.01 nm	0.13 nm	0.08 µg/mL	0.29 nm	IgG1-CD134-Hu106 (antibody)	EC50 (read off the curve) [10]: 0.06 µg/mL; koff [11]: 0.0024 s⁻¹; kon [11]: 260000 M⁻¹ s⁻¹; koff [16]: 0.029 s⁻¹; kon [16]: 120000 M⁻¹ s⁻¹; EC50 (read off the curve) [17]: 0.06 µg/mL; EC50 (read off the curve) [18]: 0.05 µg/mL; corrected association response [24]: 0.01 nm
0.07 nm	0.74 nm	0.08 µg/mL	0.31 nm	-0.02 nm	0.26 nm	0.08 µg/mL	1.23 nm	0.02 nm	53 nM	0.82 nm	0.02 nm	0.01 nm	-0.02 nm	400 nM	0 nm	0.01 nm	0.15 nm	0.09 µg/mL	0.24 nm	IgG1-CD134-IBI101 (antibody)	EC50 [25]: 0.101 µg/mL; EC50 [26]: 1.86 µg/mL; EC50 (read off the curve) [10]: 0.06 µg/mL; EC50 [27]: 0.192 µg/mL; EC50 [28]: 0.104 µg/mL; EC50 [29]: 0.1 µg/mL; EC50 [30]: 0.111 µg/mL; EC50 [31]: 0.727 µg/mL; EC50 [32]: 0.128 µg/mL; corrected association response [24]: -0.03 nm
0.02 nm	1.39 nm	0.1 µg/mL	0.01 nm	-0.01 nm	0.01 nm	0.08 µg/mL	1.74 nm	0 nm	160 nM	0.73 nm	0.55 nm	0.01 nm	-0.03 nm	230 nM	0 nm	0.01 nm	0.11 nm	0.06 µg/mL	0.25 nm	IgG1-CD134-INCAGN1949 (antibody)	EC50 (read off the curve) [17]: 0.08 µg/mL; EC50 (read off the curve) [18]: 0.07 µg/mL; corrected association response [24]: -0.02 nm
																				IgG1-CD134-RG7888-K322A-E345R (antibody)	EC50 (read off the curve) [33]: 30 nM; EC50 (read off the curve) [34]: 0.6 µg/mL

Reference: patent US20240376221A1
